Test results published in publication doi:10.1101/2020.06.02.129890 (bioRxiv, 2020).

Target: Rhodopsin (endogenous in mouse retina) (mouse (endogenous in retina), UniProt P15409 1-348)
Test: far-Western, overlay or dot blot

binding result: binds
B1: GFP-MYO1C-790-1028 (MYO1C tail domain, also known as the cargo domain) (domain or fragment, mouse, UniProt Q9WTI7-2 790-1028, looked up)
chain: PRNVLDTSWPTPPPALREASELLRELCMKNMVWKYCRSISPEWKQQLQQKAVASEIFKGKKDNYPQSVPRLFISTRLGTEEISPRVLQSLGSEPIQYAVPVVKYDRKGYKPRPRQLLLTPSAVVIVEDAKVKQRIDYANLTGISVSSLSDSLFVLHVQREDNKQKGDVVLQSDHVIETLTKTALSADRVNNININQGSITFAGGPGRDGIIDFTSGSELLITKAKNGHLAVVAPRLNSR
